The test deals with Pyruvate kinase M2 isoform (human (endogenous in AGS and HGC27)) (UniProt P14618). Description: cross-linking.

Chain of Pyruvate kinase M2 isoform, P14618 1-531 (natural protein; other documents disagree on this pair) (P14618 whole entry, canonical isoform): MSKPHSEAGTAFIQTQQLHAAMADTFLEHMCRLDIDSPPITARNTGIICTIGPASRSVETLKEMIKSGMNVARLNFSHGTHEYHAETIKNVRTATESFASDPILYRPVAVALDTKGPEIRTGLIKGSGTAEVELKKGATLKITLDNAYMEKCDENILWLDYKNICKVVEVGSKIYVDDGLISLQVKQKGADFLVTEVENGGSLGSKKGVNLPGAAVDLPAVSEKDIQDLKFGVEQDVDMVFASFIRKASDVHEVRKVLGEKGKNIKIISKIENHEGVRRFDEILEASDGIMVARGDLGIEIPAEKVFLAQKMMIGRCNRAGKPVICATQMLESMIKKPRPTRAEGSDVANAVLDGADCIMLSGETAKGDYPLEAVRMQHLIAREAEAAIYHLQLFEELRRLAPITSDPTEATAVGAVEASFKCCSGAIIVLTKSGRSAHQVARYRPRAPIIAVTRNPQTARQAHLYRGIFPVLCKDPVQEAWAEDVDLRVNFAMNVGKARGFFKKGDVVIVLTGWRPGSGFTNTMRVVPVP

“Pyruvate kinase M2 isoform, P14618 1-531 (natural protein; other documents disagree on this pair)” came in with a stoichiometry N of 2.

As a reminder, the stoichiometry N is the number of molecules, sites or subunits per partner or assembly.
